In patent US20170226172A1 (NEW YORK UNIVERSITY, published 2017):
Like-named read-outs stand apart in the source and are kept apart here.

Assays:
[1] = target: FGFR1c and alpha-klotho, human, on BAF3 cells (Example 7) (human, UniProt P11362 22-822; Q9UEF7 34-1012); assay: cell-based or functional assay
[2] = target: T1, alpha-Klotho with endogenous FGFRs on HEK293-alphaKlotho cells; assay: cell-based or functional assay
[3] = target: T1, alpha-Klotho with endogenous FGFRs on …; assay: FACS competition on HEK293-alphaKlotho cells against a sub-saturating dose of FGF23
Excerpt: IC50 values were derived from the resulting inhibition binding curves (FIG. 7).

[4] = target: T2, FGFR1c/alpha-klotho on BaF3 cells (Example 12) (Homo sapiens (Human), UniProt P11362 22-822; Q9UEF7 34-1012); assay: FACS competitive binding on BaF3 cells expressing FGFR1c and Klotho, against 0.2 ug/mL FGF-23; drug 0 to 2430 nM; the number stands beside the legend entry under the title 'FACS CO… BINDING IC50', the unit is that of the axis (nM DRUG)
T2 construct: also called BaF3 cells expressing FGFR1c and αklotho; BAF3 lines engineered to express FGFR1c/αklotho

[5] = target: T3, FGFR4/alpha-klotho on BaF3 cells (Example 12) (Homo sapiens (Human), UniProt P22455 22-802; Q9UEF7 34-1012); assay: FACS competitive binding on BaF3 cells expressing FGFR4 and Klotho, against 0.2 ug/mL FGF-23; drug 0 to 2430 nM; the number stands beside the legend entry under the title 'FACS CO… BINDING IC50', the unit is that of the axis (nM DRUG)
T3 construct: also called BaF3 cells expressing FGFR4 and αklotho; BaF3-FGFR4/αklotho cells

[6] = target: T1, alpha-Klotho with endogenous FGFRs on …; assay: FACS competition on HEK293-alphaKlotho cells: peptide 0.01 to about 1000 nM against 0.2 ug/mL full-length human FGF23, geo mean of PE intensity
[7] = target: T4, FGFR1c/alpha-klotho receptor complex, murine, pre-formed (SPR analyte) (mouse, UniProt P16092 22-376; O35082 35-982); assay: SPR competition; full-length murine FGF23 on the Biacore chip, set amount of pre-formed receptor complex with increasing c-tail construct
T4 construct: also called pre-formed receptor complex (mouse)
T4 sequence (looked up) 1: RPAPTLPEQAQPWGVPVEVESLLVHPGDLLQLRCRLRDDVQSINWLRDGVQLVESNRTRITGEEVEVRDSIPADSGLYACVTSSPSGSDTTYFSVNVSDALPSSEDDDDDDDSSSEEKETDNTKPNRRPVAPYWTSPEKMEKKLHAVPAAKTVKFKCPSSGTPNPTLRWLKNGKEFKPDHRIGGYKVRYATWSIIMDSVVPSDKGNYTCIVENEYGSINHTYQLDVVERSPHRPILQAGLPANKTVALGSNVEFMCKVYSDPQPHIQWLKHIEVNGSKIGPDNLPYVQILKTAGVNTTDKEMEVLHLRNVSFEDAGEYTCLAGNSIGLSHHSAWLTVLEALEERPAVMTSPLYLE
T4 sequence (looked up) 2: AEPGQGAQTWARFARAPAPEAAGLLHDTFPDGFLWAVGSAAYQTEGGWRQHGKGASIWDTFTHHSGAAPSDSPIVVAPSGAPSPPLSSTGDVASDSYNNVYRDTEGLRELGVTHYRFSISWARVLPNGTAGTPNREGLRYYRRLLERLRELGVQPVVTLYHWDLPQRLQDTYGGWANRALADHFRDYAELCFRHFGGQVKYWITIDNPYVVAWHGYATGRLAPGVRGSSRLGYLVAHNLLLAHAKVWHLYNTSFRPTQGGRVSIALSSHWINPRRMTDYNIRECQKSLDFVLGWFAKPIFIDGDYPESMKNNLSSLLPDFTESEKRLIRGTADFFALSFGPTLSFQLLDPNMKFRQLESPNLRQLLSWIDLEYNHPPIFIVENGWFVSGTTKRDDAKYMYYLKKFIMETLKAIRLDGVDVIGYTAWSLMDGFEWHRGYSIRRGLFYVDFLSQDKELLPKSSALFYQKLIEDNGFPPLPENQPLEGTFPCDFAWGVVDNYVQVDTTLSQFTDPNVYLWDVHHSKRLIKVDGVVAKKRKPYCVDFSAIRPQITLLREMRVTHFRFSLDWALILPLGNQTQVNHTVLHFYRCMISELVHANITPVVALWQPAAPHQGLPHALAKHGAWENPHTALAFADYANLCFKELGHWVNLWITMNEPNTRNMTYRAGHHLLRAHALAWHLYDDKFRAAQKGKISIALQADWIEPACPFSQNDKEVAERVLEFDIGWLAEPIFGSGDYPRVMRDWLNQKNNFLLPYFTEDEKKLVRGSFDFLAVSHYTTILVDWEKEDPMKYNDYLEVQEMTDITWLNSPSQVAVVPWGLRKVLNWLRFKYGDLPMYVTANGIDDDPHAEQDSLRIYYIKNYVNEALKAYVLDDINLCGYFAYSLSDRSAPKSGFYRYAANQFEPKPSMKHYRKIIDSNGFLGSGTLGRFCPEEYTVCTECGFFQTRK
Procedure: The potency of the human and murine constructs were determined via both competitive inhibition using SPR and cellular viability assays (Cell Titer Glo). […] Experiments were done in a species specific manner meaning that all components were from a single species, either mouse or human. For the functional experiments, BAF3 cells were engineered to stably express FGFR1c and α-klotho. BAF3 cells are dependent on IL-3 for growth. […] Once again this was done in a species specific manner.

[8] = target: FGFR1c and alpha-klotho, murine, on BAF3 cells (Example 7) (mouse, UniProt P16092 22-822; O35082 35-1014); assay: cell-based or functional assay
[9] = target: T1, alpha-Klotho with endogenous FGFRs on …; assay: FACS competition on HEK293-alphaKlotho cells: peptide 0.01 to about 1000 nM against 0.2 ug/mL full-length human FGF23, geo mean of PE intensity; remark: listed apart in the source
[10] = target: T1, alpha-Klotho with endogenous FGFRs on …; assay: as above; remark: listed apart in the source

B1: Human Wild Type FGF23 c-tail Fc (FGF23-c-tail-FC1), mature (Fc fusion)
chain: EPKSCDKTHTCPPCPAPEAAGAPSVFLFPPKPKDTLMISRTPEVTCVVVDVSHEDPEVKFNWYVDGVEVHNAKTKPREEQYNSTYRVVSVLTVLHQDWLNGKEYKCKVSNKALPAPIEKTISKAKGQPREPQVYTLPPSREEMTKNQVSLTCLVKGFYPSDIAVEWESNGQPENNYKTTPPVLDSDGSFFLYSKLTVDKSRWQQGNVFSCSVMHEALHNHYTQKSLSLSPGGGGGSSAEDDSERDPLNVLKPRARMTPAPASCSQELPSAEDNSPMASDPLGVVRGGRVNTHAGGTGPEGCRPFAKFI
notes: Made in CHO cells; also called HuFGF23 c-tail Fc; huFGF23-Fc
For B1, the “IC50, cellular viability (Cell Titer Glo) of BAF3 cells expressing FGFR1c and alpha-klotho kept alive by FGF23” value [1] was 53 nM, the “IC50, inhibition of FGF23-mediated Egr1-luciferase activity in HEK293 cells expressing alpha-klotho (after assay optimization)” value [2] was 21.5 nM and the “IC50, inhibition of FGF23-mediated Egr1-luciferase activity in HEK293 cells expressing alpha-klotho (prior to assay optimization)” value [2] was 202 nM. For the same binder, the “IC50 (read off the curve)” value [3] was roughly 10 nM and the IC50 [4] was 20.4 nM.

B2: Wild Type Human FGF23 c-tail 180-251 (72 amino acid peptide) (peptide)
peptide: SAEDDSERDPLNVLKPRARMTPAPASCSQELPSAEDNSPMASDPLGVVRGGRVNTHAGGTGPEGCRPFAKFI
notes: also called FGF23 c-tail peptide; unconjugated FGF23 c-tail peptide
For B2, the IC50 [5] was 23 nM, the “IC50, inhibition of FGF23 signaling (Egr1-luciferase) in HEK293 cells expressing alpha-klotho (prior to assay optimization)” value [2] was 81.9 nM and the “IC50 (read off the curve)” value [3] was roughly 20 nM. It also gave an IC50 [6] of 2.9 nM and an IC50 [4] of 15.4 nM.

B3: Wild Type Murine FGF23 c-tail Fc (muFGF23-c-tail-FC1), mature (Fc fusion)
chain: VPRDAGCKPCICTVPPVSSVFIFPPKPKDVLTITLTPKVTCVVVDISKDDPEVQFSWFVDDVEVHTAQTQPREEQFNSTFRSVSELPIMHQDWLNGKAFACAVNSAAFPAPIEKTISKTKGRPKAPQVYTIPPPKEQMAKDKVSLTCMITDFFPEDITVEWQWNGQPAENYKNTQPIMDTDGSYFVYSKLNVQKSNWEAGNTFTCSVLHEGLHNHHTEKSLSHSPGGGGGSSAEDPPERDPLNVLKPRPRATPVPVSCSRELPSAEEGGPAASDPLGVLRRGRGDARGGAGGADRCRPFPRFV
notes: also called Murine FGF23-Fc; surrogate molecule
B3 was tested, and the Ki [7] was 10 nM and the “IC50, cellular viability (Cell Titer Glo) of BAF3 cells expressing FGFR1c and alpha-klotho kept alive by FGF23” value [8] was 35 nM.

B4: Human FGF23 c-tail 70 (-2 amino acid construct) peptide (peptide)
peptide: SAEDDSERDPLNVLKPRARMTPAPASCSQELPSAEDNSPMASDPLGVVRGGRVNTHAGGTGPEGCRPFAK
notes: also called truncated FGF23 c-tail peptide, 70 amino acids
B4 was tested, and the IC50 [9] was 2.4 nM.

B5: Human FGF23 c-tail 69 (-3 amino acid construct) peptide (peptide)
peptide: SAEDDSERDPLNVLKPRARMTPAPASCSQELPSAEDNSPMASDPLGVVRGGRVNTHAGGTGPEGCRPFA
notes: also called truncated FGF23 c-tail peptide, 69 amino acids
B5 gave an IC50 [10] of 2.8 nM.
